Laboratory results as given in patent US20250042994A1 (HAINAN SIMCERE ZAIMING PHARMACEUTICAL, published 2025).

T1: human CD19 on Raji cells (human, UniProt P15391 20-556)
T1 construct: whole, on cells
T1 sequence (looked up): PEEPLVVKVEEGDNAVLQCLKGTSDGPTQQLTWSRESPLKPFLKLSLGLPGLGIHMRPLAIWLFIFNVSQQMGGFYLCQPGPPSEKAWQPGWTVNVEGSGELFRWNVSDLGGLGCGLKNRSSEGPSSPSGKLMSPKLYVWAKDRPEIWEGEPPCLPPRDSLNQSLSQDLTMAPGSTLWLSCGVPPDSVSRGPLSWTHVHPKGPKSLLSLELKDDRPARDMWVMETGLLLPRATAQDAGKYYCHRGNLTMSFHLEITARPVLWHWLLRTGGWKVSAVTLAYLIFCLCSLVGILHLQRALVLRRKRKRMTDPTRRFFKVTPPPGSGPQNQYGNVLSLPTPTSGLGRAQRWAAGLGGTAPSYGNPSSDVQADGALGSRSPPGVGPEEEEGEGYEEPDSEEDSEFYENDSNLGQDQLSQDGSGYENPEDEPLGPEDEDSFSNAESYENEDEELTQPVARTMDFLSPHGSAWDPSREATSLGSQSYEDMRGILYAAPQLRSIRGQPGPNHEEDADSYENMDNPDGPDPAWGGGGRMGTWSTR

T2: cynomolgus monkey CD19 on peripheral blood B cells (cynomolgus monkey (Macaca fascicularis), UniProt A0A2K5W8L9 20-557)
T2 construct: whole, on cells; also called cynomolgus monkey B cells
T2 sequence: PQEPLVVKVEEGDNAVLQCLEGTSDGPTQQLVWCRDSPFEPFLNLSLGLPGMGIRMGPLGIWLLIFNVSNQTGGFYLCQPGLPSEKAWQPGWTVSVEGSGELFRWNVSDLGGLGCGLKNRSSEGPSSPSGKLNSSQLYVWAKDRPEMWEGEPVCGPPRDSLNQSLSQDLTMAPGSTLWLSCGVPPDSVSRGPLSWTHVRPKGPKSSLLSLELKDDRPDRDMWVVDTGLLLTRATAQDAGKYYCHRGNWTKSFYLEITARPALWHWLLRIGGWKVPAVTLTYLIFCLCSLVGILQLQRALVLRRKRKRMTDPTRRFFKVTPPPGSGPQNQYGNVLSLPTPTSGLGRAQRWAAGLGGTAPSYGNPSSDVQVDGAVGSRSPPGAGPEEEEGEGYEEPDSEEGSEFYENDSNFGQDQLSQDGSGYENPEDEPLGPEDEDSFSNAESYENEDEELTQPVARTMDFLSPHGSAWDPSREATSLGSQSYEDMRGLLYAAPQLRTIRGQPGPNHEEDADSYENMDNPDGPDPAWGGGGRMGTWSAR

T3: human CD19 on CHO-K1-human CD19 cells (human, UniProt P15391 20-556)
T3 construct: whole, on cells; also called CHO-K1-human CD19-2C8
T3 sequence (looked up): T1 sequence (looked up)

B1: F4.272.13 (antibody, human IgG1, V domains shown)
VH: QVQLKESGPGLVAPSQSLSITCTVSGFSLTDYGVSWIRQPPGKGLEWLGVIWGSETTFYNSALKSRLSISKDNSKSQLFLQMNSLQADDTAIYYCAKHHYYGGSFSMDYWGQGTSVTVSS
VL: DIQMTQTTSSLSASLGDRVTISCRASQDINNYLNWYQQKPDGTVKFLIYYTSRLHSGVPSRFSGSGSGTDYSLTISDLEQEDIATYFCQQGNTLPYTFGGGTKLEIK
notes: human-murine chimeric antibody, human IgG1
B2: F5.3.6 (antibody, human IgG1, V domains shown)
VH: DVQLQESGPGLVKPSQSQSLTCSVTGYSITSGYYWNWIRQFPGNKLEWMGYISYDGSNNYNPSLKNRISITRDTSKNQFFLKLNSVTTEDTVTYYCARAPLTGDRYWYFDVWGTGTTVTVSS
VL: DIVLTQSPASLAVSLGQRATISCRASQSVSTSSYSYMHWYQQKPGQTPKLLIKYASNLKSGVPARFSGSGSGTDFTLNIHPVEEEDTATYYCQHSWEIPPTFGGGTKLEIK
notes: as for B1
B3: F5.10.6 (antibody, human IgG1, V domains shown)
VH: DVQLQESGPGLVKPSQSLSLTCSVTDYSITSGYYWTWIRQFPGNKLEWMGYISYDGSTNYNPSLKNRFSITRDTSKNQFFLKLNSVIIEDTATYYCARDRMSTTWYFDVWGTGTTVTVSS
VL: DIVLTQSPASLAVSLGQRATISCRASESVDNYGISFMHWYQQKPGQPPKLLIYRASKTESGIPARFSGSGSRTDFTLTINPVETDDVATYYCQQSNKYPRTFGGGTKVEIK
notes: as for B1
B4: F5.8.6 (antibody, human IgG1, V domains shown)
VH: QVQLHQPGAELVMPGASVTLSCKASGYTFTSYWMHWVKQRPGQGLEWIGEIDPSDSYTTYDQKFKGKATLTVDKFSSTAYMQFSSLTSEDSAVYYCARLTGNHLDYWGQGTTLTVSS
VL: DIVMTQSHKFMSSSVGDRVSITCKASQDVSPAVAWYQQKPGQSPKLLIYSTSYRNTGVPDRFTGSGSGTDFTFTISSVQAEDLAVYYCQQHYSIPLTFGAGTKLELK
notes: as for B1
B5: F5.2.9 (antibody, human IgG1, V domains shown)
VH: QVTLKESGPGILQPSQTLSLTCSFSGFSLSTFGLGVGWVRQPSGKGLEWLAHIWWDDDKYYNPALKSRVTVSKETSKNQVFFKIANVDTADSATYYCARLSRGLRRDVVYAMDHWGQGTSVTVSS
VL: DIQMTQTTSSLSASLGDRVTISCRASQDISNYLNWYQQKPDGSVKLLISYVSRLQSGVPSRFRGSGSGTDYSLTISNLDQEDIATYFCQQGIAFPYTFGGGTKLDIK
notes: as for B1

What follows are binders tested against T1, human CD19 on Raji cells (assay: FACS on Raji cells).
Text: (§1) The desired cells were scale-up cultured in a T-75 cell culture flask to the logarithmic growth phase. For the adherent cell CHO-K1, the medium was aspirated, the cells were washed 2 times with a PBS buffer, and then digested with trypsin. After the digestion was terminated, the cells were washed 2 times with a PBS buffer; and for suspension cell Raji, the supernatant of the medium was discarded by directly centrifugation, and the cell pellet was washed 2 times with PBS. After counting the cells in the previous step, the cell pellet was resuspended with [PBS+2% (w/w) BSA] blocking solution to 2×10⁶ cells/ml, and added to a 96-well FACS reaction plate at 50 μl/well, and then the sample to be tested was added at 50 μl/well, and incubated on ice for 2 h. The obtained mixture was centrifuged and washed 3 times with a PBS buffer. […] The obtained mixture was centrifuged and washed 5 times with a PBS buffer, and FACS (FACS Canto™, purchased from BD Company) was used for detection and result analysis. Data analysis was performed by software (FlowJo) to obtain the mean fluorescence intensity (MFI) of the cells. And then software (GraphPad Prism8) was used for analysis, data fitting, and EC50 value calculation. […] The same method was used to detect the binding of the chimeric antibodies to endogenous CD19-negative cells, MoLT4 cells (purchased from ATCC, CRL-1582), and CHO-K1 cells.

Binder | EC50 | Maximum mean fluorescence intensity
B1 | 0.81 nM | 27600
B2 | 3.19 nM | 22400
B3 | 1.34 nM | 22100
B4 | 1.26 nM | 27300
B5 | 2.79 nM | 17600

These binders were tested against T2, cynomolgus monkey CD19 on peripheral … (assay: FACS, cynomolgus PBMC, CD20+ B cells).
Method: The monkey peripheral blood mononuclear cells were extracted from fresh cynomolgus monkey peripheral blood (purchased from Shanghai Medicilon Inc.) according to the instructions of Ficoll-Paque Plus (purchased from GE Healthcae, catalog number: 171440-02). After the cell suspension was centrifuged, the cells were resuspended in PBS containing 1% BSA, and then the cells were counted. […] The mixture was incubated for 1 h at room temperature. After washing the cells three times, APC-labeled secondary antibody anti-human IgG Fc (catalog number: 409306, purchased from Biolegend) was added. After incubation at room temperature in the dark for 30 minutes, the cells were washed 5 times, gently resuspended with PBS containing 1% BSA, and detected and analyzed by FACS (FACS Canto™, purchased from BD Company), in which CD20 was used as a marker of B cells to gate the CD20-positive B cell population, the proportion of the chimeric antibody-labeled positive cells was analyzed, and the proportion of the chimeric antibody positive cell population to B cell population was calculated after treatments with the chimeric antibodies at the concentrations of 100 nM, 10 nM and 1 nM, respectively.

Binder | Proportion of chimeric antibody positive cells to B cells (%) at 1 nM | Proportion of chimeric antibody positive cells to B cells (%) at 10 nM | Proportion of chimeric antibody positive cells to B cells (%) at 100 nM
B1 | 1% | 2% | 9%
B2 | 2% | 7% | 12%
B3 | 61% | 97% | 99%
B4 | 5% | 13% | 18%
B5 | 93% | 98% | 98%

What follows are binders tested against T3, human CD19 on CHO-K1-human CD19 cells (assay: FACS on CHO-K1-human CD19 cells).
Text: as §1

Binder | EC50 | Maximum mean fluorescence intensity
B1 | 0.77 nM | 55300
B2 | 3.62 nM | 46900
B3 | 2.6 nM | 47700
B4 | 3.5 nM | 53600
B5 | 1.02 nM | 34000

Each binder was assayed against T4, monkey CD19 on HEK293T-monkey CD19 cells (monkey) (assay: FACS on HEK293T-monkey CD19 cells).
T4 construct: whole, on cells
Method: as §1, with “After” for “The desired cells were scale-up cultured in a T-75 cell culture flask to the logarithmic growth phase. For the adherent cell CHO-K1, the medium was aspirated, the cells were washed 2 times with a PBS buffer, and then digested with trypsin. After”
HEK293T-monkey CD19 cells were subjected to FACS detection and data analysis according to the method in example 5.2. […] The same method was used to detect binding of the chimeric antibodies to HEK293T cells.

Binder | EC50 | Maximum mean fluorescence intensity
B1 | 3.86 nM | 40500
B2 | 20.7 nM | 26100
B3 | 4.98 nM | 99900
B4 | 5.7 nM | 43800
B5 | 2.82 nM | 81500
